Square brackets hold non-standard residues; d marks the D form. Ends that are not written are not given here. pY = N[C@@H](Cc1ccc(OP(=O)(O)O)cc1)C(=O)O
T1: PTP1B (Homo sapiens, UniProt P18031)
T1 construct: human PTP1B phosphatase domain (residues 2–321) with a GST tag; GST (cleaved yes); made in house; host or cells: E. coli BL21 (DE3)
T1 sequence (P18031 2-321): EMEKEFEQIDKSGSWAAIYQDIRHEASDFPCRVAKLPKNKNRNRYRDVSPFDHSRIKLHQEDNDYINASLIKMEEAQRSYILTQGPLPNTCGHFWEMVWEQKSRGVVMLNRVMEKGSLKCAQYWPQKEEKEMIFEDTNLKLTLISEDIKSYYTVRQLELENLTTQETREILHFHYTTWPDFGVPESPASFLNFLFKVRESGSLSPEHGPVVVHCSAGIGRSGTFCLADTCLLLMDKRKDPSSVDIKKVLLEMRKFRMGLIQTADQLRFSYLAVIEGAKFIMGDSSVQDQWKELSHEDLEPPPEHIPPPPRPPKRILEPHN

T2: IRK pYpY activation loop peptide
T2 peptide: ETD[pY][pY]RKGGKGL

T3: PTP1B phosphatase domain (residues 2-321) D181A/Q262A (human, UniProt P18031 2-321, D181A | Q262A)
T3 construct: Protein tyrosine phosphatase 1B, human, phosphatase domain, residues 2-321, D181A/Q262A; pPROEX vector; no cleavage of the His tag is told; also called PTP1B D181A/Q262A; PTP1B D/Q; source: E. coli BL21 (DE3), purified (nickel resin, size exclusion)
T3 sequence (looked up): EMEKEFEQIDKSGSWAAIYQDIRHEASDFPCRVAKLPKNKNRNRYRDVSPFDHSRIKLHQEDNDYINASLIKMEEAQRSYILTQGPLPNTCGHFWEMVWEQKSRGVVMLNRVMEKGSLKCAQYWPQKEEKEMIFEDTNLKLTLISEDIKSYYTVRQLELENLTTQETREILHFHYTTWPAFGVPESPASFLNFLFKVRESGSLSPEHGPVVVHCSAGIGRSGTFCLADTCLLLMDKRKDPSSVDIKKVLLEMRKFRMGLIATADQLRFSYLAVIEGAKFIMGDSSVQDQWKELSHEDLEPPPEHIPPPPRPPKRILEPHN

T4: PTP1B phosphatase domain (residues 2-321) C215A/D181A/Q262A triple mutant (human, UniProt P18031 2-321, D181A | C215A | Q262A)
T4 construct: Protein tyrosine phosphatase 1B, human, phosphatase domain, residues 2-321, D181A/C215A/Q262A; pPROEX vector; no cleavage of the His tag is told; also called D181A/Q262A/C215A; PTP1B D/Q/C; source: E. coli BL21 (DE3), purified (nickel resin, size exclusion)
T4 sequence (looked up): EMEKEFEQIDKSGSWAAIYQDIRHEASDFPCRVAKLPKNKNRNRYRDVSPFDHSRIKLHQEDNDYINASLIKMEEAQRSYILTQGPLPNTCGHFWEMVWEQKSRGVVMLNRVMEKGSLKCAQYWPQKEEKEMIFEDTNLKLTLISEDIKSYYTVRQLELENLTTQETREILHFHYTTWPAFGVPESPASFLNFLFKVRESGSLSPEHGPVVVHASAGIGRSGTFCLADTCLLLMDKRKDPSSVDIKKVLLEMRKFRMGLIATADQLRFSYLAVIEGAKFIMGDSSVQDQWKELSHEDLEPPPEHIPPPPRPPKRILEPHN

B1: JAK2 pYpY activation loop peptide (peptide)
peptide: VLPQDKE[pY][pY]KVKEPGE
notes: printed as VLPQDKE[pY][pY]KVKEPGE; In the crystal with PTP1B D181A/Q262A the peptide is seen as the dephosphorylated product; source: synthetic peptide

How the values were obtained:
PTP1B [1] = target: T1, PTP1B; experiment: 1H NMR dephosphorylation of activation loop peptides; type: biochemical; conditions: bisphosphorylated peptide as substrate, WT PTP1B, Fig. 6c
Excerpt: A Michaelis-Menten analysis of dephosphorylation of JAK2 and IRK activation loop peptides indicated an enhanced dephosphorylation rate for both peptides when in the bisphosphorylated state (Fig. 6a), consistent with previous data on IRK[7]. […] Using ^1H NMR we then measured the dephosphorylation of individual YpY, pYY and YY peptides over time (Supplementary Fig. S5), and similarly, observed an overall preference for bisphosphorylated peptides, however JAK2 YpY was dephosphorylated at a similar rate as the pYpY peptides, highlighting again the preference for this residue by PTP1B (Fig. 6).
Fig. 6 PTP1B preferentially targets different phosphotyrosines in the JAK2 and IRK activation loops. a Michaelis–Menten analysis of PTP1B-induced dephosphorylation via the malachite green assay. Data are from three independent experiments, error bars are SEM. b Dephosphorylation of mono- and bisphosphorylated peptides over time as measured by 1H NMR to determine reaction rate (shown as s-1). c 1H NMR was used to track the dephosphorylation of JAK2 and IRK bisphosphorylated activation loop peptides over time. […]
(§1) Specifically, we measured the appearance of the individual YpY, pYY and YY products over time (Supplementary Fig. S6). […]
0.5 mg of JAK2 or IRK pYpY, pYY and YpY peptides were dissolved in 500 μl of 20 mM Tris (pH 7.5), 2 mM TCEP, and 100 mM NaCl. […] Data was analyzed using TopSpin v3.2 (Bruker). […]

PTP1B R47A = experiment: 1H NMR dephosphorylation of bisphosphorylated activation loop peptides; type: biochemical, human; conditions: bisphosphorylated peptide as substrate, PTP1B R47A mutant
Excerpt: Fig. 6 PTP1B preferentially targets different phosphotyrosines in the JAK2 and IRK activation loops. a Michaelis–Menten analysis of PTP1B-induced dephosphorylation via the malachite green assay. Data are from three independent experiments, error bars are SEM. b Dephosphorylation of mono- and bisphosphorylated peptides over time as measured by 1H NMR to determine reaction rate (shown as s-1). c 1H NMR was used to track the dephosphorylation of JAK2 and IRK bisphosphorylated activation loop peptides over time. […] Arg47 has an effect on the preference for dephosphorylation of the second phosphotyrosine in JAK2, with loss of selectivity for dephosphorylation of either phosphotyrosine in the R47A PTP1B mutant. […]
as §1
0.5 mg of JAK2 or IRK pYpY, pYY and YpY peptides were dissolved in 500 μl of 20 mM Tris (pH 7.5), 2 mM TCEP, and 100 mM NaCl. […] To start the dephosphorylation reaction, 2 nM PTP1B was added to each sample and multiple 1H NMR spectra were recorded over the course of 1 h. Data was analyzed using TopSpin v3.2 (Bruker). The concentration of each species of ALP (pYpY, pYY, or YpY) in the reaction was calculated by integrating the area under the peak and normalising these values to the starting peptide concentration.

PTP1B [2] = conditions: peptide with Phe in the −1 position; cited from earlier work
[3] = target: B1
[4] = target: T2, IRK pYpY activation loop peptide; experiment: cell-based or functional assay
[5] = target: B1; experiment: cell-based or functional assay
[6] = target: T3, PTP1B phosphatase domain (residues …); experiment: crystal structure; PTP1B D181A/Q262A co-crystallised with a 2-fold excess of bisphosphorylated peptide; the tyrosyl-peptide product and free phosphate are seen in the active site; conditions: both partners purified
[7] = target: T4, PTP1B phosphatase domain (residues …); experiment: crystal structure; catalytically dead PTP1B D181A/Q262A/C215A co-crystallised with a 2-fold excess of phosphopeptide; substrate-bound; conditions: both partners purified

Molecule | binding result [6] | binding result [7] | other results
VLPQDKE[pY][pY]KVKEPGE [JAK2 pYpY] | – | – | rate of dephosphorylation of the second pTyr relative to the first (PTP1B [1]; 1H NMR tracking of pYY and YpY products): ~ 3 fold; preference for dephosphorylation of the second pTyr over the first (PTP1B R47A): 1.3 fold
ELEFpYMDYE [peptide of PDB 1EEO with Phe in the −1 position, literature PTP1B substrate] | – | – | substrate quality for PTP1B (PTP1B [2]): potent PTP1B substrate
ETD[pY][pY]RKGGKGL [IRK pYpY] | – | – | preference for dephosphorylation of the first pTyr over the second (PTP1B [1]; 1H NMR tracking of products): ~ 1.6 fold
PTP1B phosphatase domain (residues 2-321) R47A (enzyme) EMEKEFEQIDKSGSWAAIYQDIRHEASDFPCRVAKLPKNKNRNRYADVSPFDHSRIKLHQEDNDYINASLIKMEEAQRSYILTQGPLPNTCGHFWEMVWEQKSRGVVMLNRVMEKGSLKCAQYWPQKEEKEMIFEDTNLKLTLISEDIKSYYTVRQLELENLTTQETREILHFHYTTWPDFGVPESPASFLNFLFKVRESGSLSPEHGPVVVHCSAGIGRSGTFCLADTCLLLMDKRKDPSSVDIKKVLLEMRKFRMGLIQTADQLRFSYLAVIEGAKFIMGDSSVQDQWKELSHEDLEPPPEHIPPPPRPPKRILEPHN | – | – | preference for dephosphorylation of the second pTyr against the first in the bisphosphorylated peptide, followed by 1H NMR [3]: 1.3 fold
human PTP1B phosphatase domain (residues 2-321), wild type (enzyme, UniProt P18031 2-321, looked up) EMEKEFEQIDKSGSWAAIYQDIRHEASDFPCRVAKLPKNKNRNRYRDVSPFDHSRIKLHQEDNDYINASLIKMEEAQRSYILTQGPLPNTCGHFWEMVWEQKSRGVVMLNRVMEKGSLKCAQYWPQKEEKEMIFEDTNLKLTLISEDIKSYYTVRQLELENLTTQETREILHFHYTTWPDFGVPESPASFLNFLFKVRESGSLSPEHGPVVVHCSAGIGRSGTFCLADTCLLLMDKRKDPSSVDIKKVLLEMRKFRMGLIQTADQLRFSYLAVIEGAKFIMGDSSVQDQWKELSHEDLEPPPEHIPPPPRPPKRILEPHN | – | – | preference for dephosphorylation of the first pTyr against the second in the bisphosphorylated peptide, followed by 1H NMR [4]: ~1.6 fold; rate of dephosphorylation of the second pTyr against the first in the bisphosphorylated peptide, followed by 1H NMR [5]: ~3 fold
AIETDKE[pY][pY]TVKDDLD (printed as AIETDKE[pY][pY]TVKDDLD; In the crystal with PTP1B D181A/Q262A the peptide is seen as the dephosphorylated product; also called JAK1 peptide; source: synthetic peptide) [JAK1 pYpY activation loop peptide] | binds | – | –
VLPQDKEY[pY]KVKEPGE (source: synthetic peptide) [JAK2 YpY activation loop peptide] | – | binds | –
VLPQDKE[pY]YKVKEPGE (source: synthetic peptide) [JAK2 pYY activation loop peptide] | – | binds | –
B1 | binds | binds | –
LLPLDKD[pY][pY]VVREPGQ (printed as LLPLDKD[pY][pY]VVREPGQ; In the crystal with PTP1B D181A/Q262A the peptide is seen as the dephosphorylated product; also called JAK3 peptide; source: synthetic peptide) [JAK3 pYpY activation loop peptide] | binds | – | –
VPEGHE[pY][pY]RVREDGD (printed as VPEGHE[pY][pY]RVREDGD; In the crystal with PTP1B D181A/Q262A the peptide is seen as the dephosphorylated product; source: synthetic peptide) [TYK2 pYpY activation loop peptide] | binds | binds | –

Source: paper PMC10267100 (Communications Biology, 2023)
